The results in this text go back to patent publication US20240287161A1 (NATIONAL UNIVERSITY CORPORATION TOTTORI UNIVERSITY, published 2024).

Assay [1] has as its target T1, HCoV-NL63 trimeric S protein (amino acids 22-1293) with T4 foldon, histidine tag and strep-tag (HCoV-NL63, UniProt Q6Q1S2 23-1293).
T1 sequence: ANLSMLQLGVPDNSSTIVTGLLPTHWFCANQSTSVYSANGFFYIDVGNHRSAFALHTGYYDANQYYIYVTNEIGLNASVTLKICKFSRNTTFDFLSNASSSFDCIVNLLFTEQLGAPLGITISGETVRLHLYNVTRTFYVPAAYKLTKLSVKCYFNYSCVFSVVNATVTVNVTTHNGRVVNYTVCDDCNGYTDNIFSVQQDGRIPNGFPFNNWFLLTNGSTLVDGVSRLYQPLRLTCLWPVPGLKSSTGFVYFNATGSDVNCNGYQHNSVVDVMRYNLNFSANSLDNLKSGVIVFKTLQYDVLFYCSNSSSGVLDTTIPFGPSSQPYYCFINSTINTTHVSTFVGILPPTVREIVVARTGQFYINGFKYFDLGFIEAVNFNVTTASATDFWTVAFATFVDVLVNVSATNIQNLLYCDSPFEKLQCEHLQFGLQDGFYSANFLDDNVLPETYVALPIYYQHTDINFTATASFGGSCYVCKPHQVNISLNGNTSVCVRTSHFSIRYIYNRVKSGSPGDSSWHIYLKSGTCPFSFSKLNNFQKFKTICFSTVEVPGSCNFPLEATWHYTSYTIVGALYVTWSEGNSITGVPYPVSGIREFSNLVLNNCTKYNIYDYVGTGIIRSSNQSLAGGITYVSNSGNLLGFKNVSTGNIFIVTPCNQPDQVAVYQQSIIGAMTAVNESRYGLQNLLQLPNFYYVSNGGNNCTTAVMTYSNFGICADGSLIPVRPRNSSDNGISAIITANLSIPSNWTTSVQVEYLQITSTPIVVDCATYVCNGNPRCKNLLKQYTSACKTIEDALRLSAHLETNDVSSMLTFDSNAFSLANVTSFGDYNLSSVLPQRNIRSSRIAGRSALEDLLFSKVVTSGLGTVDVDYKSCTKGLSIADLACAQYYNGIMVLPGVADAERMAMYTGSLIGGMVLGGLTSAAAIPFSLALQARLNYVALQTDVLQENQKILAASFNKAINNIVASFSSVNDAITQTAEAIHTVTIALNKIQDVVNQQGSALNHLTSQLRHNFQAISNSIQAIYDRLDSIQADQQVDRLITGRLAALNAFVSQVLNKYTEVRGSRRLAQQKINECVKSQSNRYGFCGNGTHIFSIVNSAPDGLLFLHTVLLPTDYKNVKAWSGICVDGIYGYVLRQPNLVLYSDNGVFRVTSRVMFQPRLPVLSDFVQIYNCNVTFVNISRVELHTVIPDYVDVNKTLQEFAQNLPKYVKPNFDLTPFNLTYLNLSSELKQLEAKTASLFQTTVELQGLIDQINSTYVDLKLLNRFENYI
Put plainly: ELISA on coated S-trimeric antigen, anti-human IgG-HRP [Human IgG1, NT-193].

Assay [2] concerns the target T2, HCoV-229E trimeric S protein (amino acids 12-1109) with T4 foldon, histidine tag and strep-tag (HCoV-229E, UniProt P15423 12-1112).
T2 chain: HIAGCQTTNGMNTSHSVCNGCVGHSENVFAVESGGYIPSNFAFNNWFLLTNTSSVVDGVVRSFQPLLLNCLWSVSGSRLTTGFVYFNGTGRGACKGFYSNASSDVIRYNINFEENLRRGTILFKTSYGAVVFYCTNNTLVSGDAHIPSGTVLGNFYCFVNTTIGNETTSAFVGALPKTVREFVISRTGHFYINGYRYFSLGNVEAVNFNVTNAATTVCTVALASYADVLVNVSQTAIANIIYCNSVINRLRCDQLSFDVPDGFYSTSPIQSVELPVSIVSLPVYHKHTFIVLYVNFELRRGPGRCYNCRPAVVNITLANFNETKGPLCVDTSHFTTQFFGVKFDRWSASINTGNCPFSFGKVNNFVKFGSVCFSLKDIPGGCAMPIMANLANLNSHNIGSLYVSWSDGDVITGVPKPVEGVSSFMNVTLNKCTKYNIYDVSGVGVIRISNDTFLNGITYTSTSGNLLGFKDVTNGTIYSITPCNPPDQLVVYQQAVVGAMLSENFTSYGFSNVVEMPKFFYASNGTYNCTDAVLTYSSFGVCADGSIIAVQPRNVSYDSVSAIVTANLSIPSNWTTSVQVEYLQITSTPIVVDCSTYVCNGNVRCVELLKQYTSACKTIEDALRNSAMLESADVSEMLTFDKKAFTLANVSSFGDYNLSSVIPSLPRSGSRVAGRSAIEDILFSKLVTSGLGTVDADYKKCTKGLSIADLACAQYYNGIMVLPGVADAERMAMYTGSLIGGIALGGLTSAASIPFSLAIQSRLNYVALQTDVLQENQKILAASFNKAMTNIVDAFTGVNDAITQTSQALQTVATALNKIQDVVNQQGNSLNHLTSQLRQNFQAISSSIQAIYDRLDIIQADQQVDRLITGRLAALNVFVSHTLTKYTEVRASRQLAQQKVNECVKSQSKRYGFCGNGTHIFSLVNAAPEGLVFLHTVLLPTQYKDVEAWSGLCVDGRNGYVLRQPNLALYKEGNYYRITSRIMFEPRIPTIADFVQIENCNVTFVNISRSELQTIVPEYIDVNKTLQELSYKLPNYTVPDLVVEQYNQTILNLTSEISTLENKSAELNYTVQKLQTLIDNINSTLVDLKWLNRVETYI
The description is as above.

B1: NT-193 (recombinant human IgG1/kappa antibody) (antibody, V domains shown)
VH: EVQLQQWGAGLLKPSETLSLTCAVYGGSFSGYYWSWIRQPPGKGLEWIGEINHSGSTNYNPSLKSRVTISVDTSKNQFSLKLSSVTAADTAVYYCARGWDLDYYYGMDVWGQGTTVTVSS
VL: DIRMTQSPSAMSASVGDRVTVTCRASQGIGNYLAWFQLKPGKVPKRLIYAASSLQSGVPARFSGGGSGTEFTLTISSLQPEDFATYYCLQHGFLPWTFGQGTKLEIK
Regarding B1, the binding result in assay [1] and in assay [2] was “no binding (tested: 1000 ng/ml)” in each case.
